Reference: patent US20230136228A1 (LAMKAP BIO ALPHA, published 2023)
Changes are numbered by the printed parent chain. In names and notes the source's numbering stands.

T1: shed soluble CEACAM5 (sCEA) (human, UniProt P06731 35-685, limits assumed)
T1 sequence (looked up): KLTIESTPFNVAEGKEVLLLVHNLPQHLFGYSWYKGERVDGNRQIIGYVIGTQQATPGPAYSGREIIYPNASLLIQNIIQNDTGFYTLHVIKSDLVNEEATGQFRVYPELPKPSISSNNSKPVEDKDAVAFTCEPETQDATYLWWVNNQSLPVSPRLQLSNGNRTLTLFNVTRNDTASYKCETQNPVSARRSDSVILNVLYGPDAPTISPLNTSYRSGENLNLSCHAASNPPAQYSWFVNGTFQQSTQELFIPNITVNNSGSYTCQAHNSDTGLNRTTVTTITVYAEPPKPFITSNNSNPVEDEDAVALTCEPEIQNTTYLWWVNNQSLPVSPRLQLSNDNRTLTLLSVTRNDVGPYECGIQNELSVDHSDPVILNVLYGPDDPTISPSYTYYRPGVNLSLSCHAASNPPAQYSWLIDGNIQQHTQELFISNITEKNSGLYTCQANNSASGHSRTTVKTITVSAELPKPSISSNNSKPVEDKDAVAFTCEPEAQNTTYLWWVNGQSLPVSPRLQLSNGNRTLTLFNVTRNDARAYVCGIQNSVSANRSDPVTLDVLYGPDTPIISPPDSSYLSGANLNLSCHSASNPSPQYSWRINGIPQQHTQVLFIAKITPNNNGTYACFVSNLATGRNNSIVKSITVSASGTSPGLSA

T2: human CEACAM5 (carcinoembryonic antigen, CEA), cell surface (human, UniProt P06731 35-685)
T2 construct: whole, on cells; also called CD66e
T2 sequence (looked up): T1 sequence (looked up)

T3: human CEACAM3 (human, UniProt P40198 35-252)
T3 construct: whole, on cells
T3 sequence (looked up): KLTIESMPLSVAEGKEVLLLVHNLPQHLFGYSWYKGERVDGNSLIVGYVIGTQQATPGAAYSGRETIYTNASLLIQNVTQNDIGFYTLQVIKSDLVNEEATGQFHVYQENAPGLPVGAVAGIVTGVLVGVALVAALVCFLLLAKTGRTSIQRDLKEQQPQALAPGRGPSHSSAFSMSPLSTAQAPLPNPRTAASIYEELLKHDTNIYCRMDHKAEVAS

T4: human CEACAM8 (human, UniProt P31997 35-320)
T4 construct: whole, on cells
T4 sequence (looked up): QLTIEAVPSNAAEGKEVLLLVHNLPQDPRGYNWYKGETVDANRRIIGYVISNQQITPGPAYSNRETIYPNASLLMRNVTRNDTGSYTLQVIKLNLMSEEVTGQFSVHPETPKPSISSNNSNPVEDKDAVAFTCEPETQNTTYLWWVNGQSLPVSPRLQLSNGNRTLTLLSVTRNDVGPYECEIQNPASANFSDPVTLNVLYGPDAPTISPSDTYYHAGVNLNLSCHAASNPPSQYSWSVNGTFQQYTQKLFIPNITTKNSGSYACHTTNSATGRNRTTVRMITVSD

B1: AB17L3-1/N (bispecific antibody, human IgG1, kappa, lambda, L234A L235A)
heavy: EVQLVESGGGLVQPGGSLKLSCAASGFTFNTYAMNWVRQAPGKGLEWVGRIRSKYNNYATYYADSVKDRFTISRDDSKNTAYLQMNSLKTEDTAVYYCVRHGNFGNSYVSWFAYWGQGTLVTVSSASTKGPSVFPLAPSSKSTSGGTAALGCLVKDYFPEPVTVSWNSGALTSGVHTFPAVLQSSGLYSLSSVVTVPSSSLGTQTYICNVNHKPSNTKVDKRVEPKSCDKTHTCPPCPAPEAAGGPSVFLFPPKPKDTLMISRTPEVTCVVVDVSHEDPEVKFNWYVDGVEVHNAKTKPREEQYNSTYRVVSVLTVLHQDWLNGKEYKCKVSNKALAAPIEKTISKAKGQPREPQVYTLPPSREEMTKNQVSLTCLVKGFYPSDIAVEWESNGQPENNYKTTPPVLDSDGSFFLYSKLTVDKSRWQQGNVFSCSVMHEALHNHYTQKSLSLSPG
light 1: EIVLTQSPATLSLSPGERATLSCRASQSVNSNLNWYQQKPGQAPRLLIYHGSNRATGIPARFSGSGSGTDFTLTISSLEPEDFAVYYCQQFDYFKEHNTFGQGTKVEIKRTVAAPSVFIFPPSDEQLKSGTASVVCLLNNFYPREAKVQWKVDNALQSGNSQESVTEQDSKDSTYSLSSTLTLSKADYEKHKVYACEVTHQGLSSPVTKSFNRGEC
light 2: QTVVTQEPSLTVSPGGTVTLTCRSSTGAVTTSNYANWFQQKPGQAPRGLIGGTNKRAPGTPARFSGSLLGGKAALTLSGAQPEDEAEYYCALWYKQRWVFGGGTKLTVLGQPKAAPSVTLFPPSSEELQANKATLVCLISDFYPGAVTVAWKADSSPVKAGVETTTPSKQSNNKYAASSYLSLTPEQWKSHRSYSCQVTHEGSTVEKTVAPTECS
notes: Kappa-lambda body, lead optimization wave 1
B2: AB1L3-1/N (bispecific antibody, human IgG1, kappa, lambda, L234A L235A)
heavy: B1 heavy
light 1: B1 light 1 with Y93L, F94R, K95H
light 2: B1 light 2
notes: Kappa-lambda body: common heavy chain (hIgG1 L234A+L235A+P329A), kappa CEA light chain AB1, lambda CD3 light chain L3-1 (1A4); also called parental KL bispecific antibody
B3: AB73L3-1/N (bispecific antibody, human IgG1, kappa, lambda, L234A L235A)
heavy: B1 heavy
light 1: B1 light 1 with G51S, S52N, A55P, T56H, K95R, H97Y
light 2: B1 light 2
notes: Kappa-lambda body, lead optimization wave 2
B4: AB72L3-1/N (bispecific antibody, human IgG1, kappa, lambda, L234A L235A)
heavy: B1 heavy
light 1: B1 light 1 with G51S, S52T, A55P, T56R, H97Y
light 2: B1 light 2
notes: as for B3
B5: AB71L3-1/N (bispecific antibody, human IgG1, kappa, lambda, L234A L235A)
heavy: B1 heavy
light 1: B1 light 1 with G51S, A55P, T56H
light 2: B1 light 2
notes: as for B3

Assays:
[1] = target: T1, shed soluble CEACAM5 (sCEA); assay: cell-based or functional assay
[2] = target: T2, human CEACAM5 (carcinoembryonic …); assay: flow cytometry, MKN-45 cells
Text: Examples of cells that can be used include CEACAM5-positive cell lines such as the gastric adenocarcinoma cell line MKN45 (expressing 155′000 CEACAM5 molecules per cell), or the pancreatic adenocarcinoma cell line HPAF-II (expressing 108′000 CEACAM5 molecules per cell) or the colorectal adenocarcinoma cell line LS174T (expressing 26′000 CEACAM5 molecules per cell) and CEACAM5-negative cell lines, such as the lung carcinoma cell line A549 and the MKN45 CEACAM5-knock out cell line generated by CRISPR-CAS9 methodology. Cell staining and binding assessment can be performed as described above. Binding of the bsAb of the invention at 200 nM, 1000 nM and 5000 nM is 40% and higher compared to binding of TCB2014 (see Table 4 and also FIGS. 11 and 14).

human CEACAM3 = target: T3, human CEACAM3; assay: flow cytometry, MFI on transfected PEAK cells divided by MFI on WT PEAK cells
Method: (§1) Similarly, vectors encoding the full-length version of cyno CEACAM 5 and 6 are also used to express these proteins at the surface of PEAK and/or CHO cells. Non-transfected PEAK and/or CHO cells are used as negative control. Cells are harvested, counted, checked for viability and resuspended at 3×10⁶ cells/ml in FACS buffer (PBS 2% BSA, 0.1% NaN₃). 100 μl of the cell suspension are distributed in V-bottom 96-well plates (3×10⁵ cells/well). The supernatant is removed by centrifugation 3 minutes at 4° C., 1300 rpm and the cells incubated for 15 minutes at 4° C. with increasing concentrations of the antibody according to the invention. The antibodies carrying the anti-CEACAM5 arms to test are diluted in FACS buffer and the concentration range is 30 pM-500 nM. Cells are washed twice with cold FACS buffer and re-incubated for further 15 minutes at 4° C. with a compatible anti-human IgG secondary antibody. Cells are washed twice with cold FACS buffer and resuspended in 300 μl FACS buffer with 1:1500-diluted TOPRO-3 (Invitrogen). Fluorescence is measured using a FACSCalibur™ (BD Biosciences) or a Cytoflex Platform (Beckman Coulter). Dose-response binding curves are fitted using GraphPad Prism8 software. In the same manner, CEACAM1, CEACAM6 and other CEACAMs can be characterized.
(§2) For the bispecific antibodies AB17L3-1/N, AB71L3-1/N, AB72L3-1/N, AB73L3-1/N the MFI measured for binding to CEACAM5 transfected cells was found between 29000 and 41000 (Table 2). In contrast MFI found by using PEAK cells transfected with CEACAM 1,3,4,6,8 were found below 1000 with the only exception of a strong signal for AB72L3-1/N on CEACAM8 transfected cells. When MFI values obtained on transfected cells expressing any given CEACAM are divided by the values obtained on WT PEAK cells, “factors to PEAK WT” can be calculated (Table 3). With the exception of AB72L3-1/N, the antibodies of the invention are all specific to CEACAM5, as the “factor to PEAK WT” values are all below 2.0.

human CEACAM8 = target: T4, human CEACAM8; assay: as above
Method: as §1, §2

[3] = target: T2, human CEACAM5 (carcinoembryonic …); assay: flow cytometry, CEA positive cells

| Binder | EC50 fold change compared to no shed CEA condition, sCEA 0 µg/mL (reference) [1] [fold] | EC50 fold change compared to no shed CEA condition, sCEA 0.2 µg/mL [1] [fold] | EC50 fold change compared to no shed CEA condition, sCEA 1 µg/mL [1] [fold] | EC50 fold change compared to no shed CEA condition, sCEA 5 µg/mL [1] [fold] | EC50 [2] [nM] | Top MFI value [2] [MFI] | binding higher than TCB2014 (at 200 nM, 1000 nM and 5000 nM) [2] [%] | Factor to PEAK WT (human CEACAM3) [fold] | Factor to PEAK WT (human CEACAM8) [fold] | binding higher than TCB2014 (at 200 nM) [3] [%] |
| --- | --- | --- | --- | --- | --- | --- | --- | --- | --- | --- |
| B1 | 1 | 3.2 | 5 | 11 | 59.2 | 862000 | ≥ 40 | 1.2 | 0.8 | – |
| B2 | – | – | – | – | – | – | – | 0.8 | 0.7 | – |
| B3 | 1 | 0.8 | 2.9 | 7.4 | 27.8 | 921000 | ≥ 40 | 0.9 | 0.8 | ≥ 40 |
| B4 | 1 | 1.2 | 2.4 | 7.3 | 24.5 | 963000 | ≥ 40 | 1 | 13.1 | ≥ 40 |
| B5 | 1 | 0.6 | 4.2 | 5.5 | 34.1 | 833000 | ≥ 40 | 0.8 | 0.9 | ≥ 40 |
